This is an account of results in patent US20250122298A1 (OSSIANIX, published 2025).

The target in experiment [1] is T1, recombinant human TfR-1 (human, UniProt P02786 89-760, limits assumed).
T1 construct: also called hTfR-1; hTfR1
Briefly: SPR Biacore T200, His-tagged TfR1 captured by anti-His, multi-cycle kinetics, 1:1 model. How it is done: Binding kinetics. Binding kinetics of TXP1, TXP1D1 and TXP1D4 were determined by surface plasmon resonance (SPR) using a Biacore T200 (GE Healthcare). A His-capture kit (GE Healthcare) was used to immobilize anti-His antibodies on CM5 chips (as recommended by the manufacturer). His-tagged recombinant hTfR1 in 0.1% BSA in HBS-EP+ buffer (GE Healthcare) was captured at flow rate 10 μl/min. Analyte binding was measured using the multi-cycle kinetic SPR method. Starting analyte concentrations at 400 nM and serially diluted in 1:4 in seven steps. Association and dissociation were measured for 360s and 1500s respectively, with flow rate at 30 μl/min. The chips were regenerated in 10 mM Glycine-HCl, pH 1.5. Sensorgrams were fitted using 1:1 binding model and kinetic constants determined using Biacore T200 Evaluation software (Cytiva).

The target in another experiment is T2, recombinant rat TfR-1 (rat, UniProt Q99376 87-761, limits assumed).
T2 construct: also called rTfR-1
T2 sequence (Q99376 87-761 limits assumed): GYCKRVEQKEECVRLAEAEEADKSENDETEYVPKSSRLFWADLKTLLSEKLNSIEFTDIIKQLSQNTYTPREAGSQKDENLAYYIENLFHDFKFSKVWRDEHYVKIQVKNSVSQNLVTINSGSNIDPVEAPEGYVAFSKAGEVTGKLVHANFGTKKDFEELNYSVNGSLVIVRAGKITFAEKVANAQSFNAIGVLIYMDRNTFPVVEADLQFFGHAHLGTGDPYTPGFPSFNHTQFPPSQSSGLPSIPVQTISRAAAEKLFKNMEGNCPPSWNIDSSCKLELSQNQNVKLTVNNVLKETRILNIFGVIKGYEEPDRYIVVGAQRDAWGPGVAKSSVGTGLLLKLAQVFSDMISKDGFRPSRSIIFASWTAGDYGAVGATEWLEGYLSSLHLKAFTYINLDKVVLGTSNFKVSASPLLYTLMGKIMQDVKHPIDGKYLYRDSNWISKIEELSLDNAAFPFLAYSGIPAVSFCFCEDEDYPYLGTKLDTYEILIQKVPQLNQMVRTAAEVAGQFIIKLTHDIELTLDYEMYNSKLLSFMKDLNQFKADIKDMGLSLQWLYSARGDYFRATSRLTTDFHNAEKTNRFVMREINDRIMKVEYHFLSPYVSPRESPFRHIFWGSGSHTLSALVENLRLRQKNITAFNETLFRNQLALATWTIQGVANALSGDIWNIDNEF
Put plainly: ELISA, plate-coated recombinant TfR-1, anti-hFc HRP detection. How it is done:
(§1) TfR-1 binding ELISA. Nunc MaxiSorp plates were coated with 100 μl of 1 μg/ml of in-house purified recombinant human, mouse, rat and cynomolgus TfR-1 and incubated at 4° C. overnight. Plates were incubated with blocking buffer (2.5% non-fat dry milk in PBST) for 1 h at RT. Serially-diluted TXP1 was mixed with non-fat dry milk in PBST to a final concentration of 2.5% and incubated for 30 min. Blocked TXP1 solutions (100 μl) were transferred to the blocked plates and incubated for 1 hr. Plates were washed with PBST and incubated with anti-hFc HRP-conjugated antibody diluted 1:5,000 (Sigma) in blocking buffer for 30 min. Plates were washed and developed with SureBlue™ TMB substrate, the reaction stopped with 1% HCl and absorbance measured at 450 nm.

For experiment [2], the target named is T3, recombinant cynomolgus TfR-1 (cynomolgus, UniProt H9EXL1 89-760 (rhesus entry)).
T3 construct: also called cTfR-1; cTfR1
T3 sequence (chain, as listed by the source): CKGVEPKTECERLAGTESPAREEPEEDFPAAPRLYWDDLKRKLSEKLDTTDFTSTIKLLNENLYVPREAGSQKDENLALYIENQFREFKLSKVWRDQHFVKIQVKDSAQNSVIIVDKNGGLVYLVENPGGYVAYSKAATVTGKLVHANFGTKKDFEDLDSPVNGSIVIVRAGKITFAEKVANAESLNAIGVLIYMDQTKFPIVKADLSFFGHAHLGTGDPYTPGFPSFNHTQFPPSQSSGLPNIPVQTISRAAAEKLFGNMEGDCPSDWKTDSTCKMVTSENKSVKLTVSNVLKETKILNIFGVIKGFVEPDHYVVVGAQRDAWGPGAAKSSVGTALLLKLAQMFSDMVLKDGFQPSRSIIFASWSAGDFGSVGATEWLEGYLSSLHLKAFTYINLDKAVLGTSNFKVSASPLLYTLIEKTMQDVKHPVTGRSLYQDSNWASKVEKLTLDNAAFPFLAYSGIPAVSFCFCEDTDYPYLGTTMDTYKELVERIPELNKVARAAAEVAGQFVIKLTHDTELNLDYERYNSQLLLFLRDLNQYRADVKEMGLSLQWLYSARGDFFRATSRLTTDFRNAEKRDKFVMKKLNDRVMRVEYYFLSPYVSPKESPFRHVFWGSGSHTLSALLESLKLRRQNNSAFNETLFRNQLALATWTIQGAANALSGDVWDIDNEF
The description is as above. How it is done: as §1

In experiment [3] the target is T1, recombinant human TfR-1. The experiment is described as above. How it is done: as §1
The target of a further experiment is T4, recombinant mouse TfR-1 (mouse, UniProt Q62351 89-763, limits assumed).
T4 construct: also called mTfR-1
T4 sequence (Q62351 89-763 limits assumed): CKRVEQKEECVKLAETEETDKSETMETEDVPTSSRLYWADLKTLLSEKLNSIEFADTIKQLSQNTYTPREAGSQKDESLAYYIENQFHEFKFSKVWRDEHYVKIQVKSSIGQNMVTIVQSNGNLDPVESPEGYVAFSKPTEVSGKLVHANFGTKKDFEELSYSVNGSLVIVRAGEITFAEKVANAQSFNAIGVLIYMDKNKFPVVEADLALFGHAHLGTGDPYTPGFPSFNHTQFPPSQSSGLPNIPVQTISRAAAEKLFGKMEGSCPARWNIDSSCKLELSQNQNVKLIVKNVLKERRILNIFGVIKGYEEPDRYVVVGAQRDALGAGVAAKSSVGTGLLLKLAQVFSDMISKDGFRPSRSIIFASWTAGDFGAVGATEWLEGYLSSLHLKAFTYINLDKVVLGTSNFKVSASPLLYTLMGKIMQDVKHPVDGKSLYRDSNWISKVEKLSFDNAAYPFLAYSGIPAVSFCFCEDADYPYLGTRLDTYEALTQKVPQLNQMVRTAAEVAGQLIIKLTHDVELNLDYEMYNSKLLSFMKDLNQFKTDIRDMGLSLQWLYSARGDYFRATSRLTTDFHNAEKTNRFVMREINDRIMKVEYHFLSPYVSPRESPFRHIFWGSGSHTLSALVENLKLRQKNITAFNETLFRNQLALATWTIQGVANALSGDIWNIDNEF
Described as above. How it is done: as §1

The target in experiment [4] is T3, recombinant cynomolgus TfR-1. Briefly: SPR Biacore T200, multi-cycle kinetics, 1:1 model.
Experiment [5] concerns the target T5, cell surface human TfR1 on hCMEC/D3 and SH-SY5Y cells (human, UniProt P02786 1-760).
T5 construct: whole, on cells; Endogenous receptor on the cell lines; also called cell surface TfR1; cell-surface hTfR1
Put plainly: flow cytometry on hCMEC/D3 cells on ice, binding to cell surface TfR1, anti-hFc Alexa647. How it is done:
Functional activity of the fully deimmunized variants was assessed using the hCMEC/D3 human endothelial cell line and the SY-SH5Y human neuronal cell line. Binding to hCMEC/D3 cells was assessed by incubation with serial antibody dilutions for 1h on ice to avoid internalization. The cells were fixed and binding to cell surface TfR1 was measured by flow cytometry. […] Internalization via cell-surface hTfR1 was assessed using the hCMEC/D3 and SY-SH5Y cell lines by incubation with the antibodies for 1 hour at 37° C.
Flow cytometry. hCMEC/D3 cells were seeded onto V-bottom 96-well plates at a density of 1×10⁴ cells/well. All incubations were carried out on ice to prevent internalization. After blocking in PBS containing 10% BSA (FACS buffer), cells were incubated with serial dilutions of TXP1. Cells were stained with propidium iodine (PI; Biolegend) for 20 min, followed by anti-hFc conjugated to Alexa647 diluted 1:300 (Jackson ImmunoResearch) for 30 min. After fixation in 4% PFA for 15 min, the cells were analyzed on a CytoFlex flow cytometer (Beckman Coulter). Gating of cells stained with secondary antibody alone was used to set the negative threshold for and the fluorescence intensity of approximately 1000 cells per condition was measured. EC50 values were calculated using a four parametric non-linear regression model.

Experiment [6] has as its target T3, recombinant cynomolgus TfR-1. Put plainly: SPR Biacore T200, His-tagged TfR-1 captured by anti-His, single cycle kinetics, 1:1 model. How it is done:
(§2) Binding kinetics. Binding kinetics of TXP1 and A06 VNAR antibodies were determined by surface plasmon resonance (SPR) using a Biacore T200 (GE Healthcare). A His-capture kit (GE Healthcare) was used to immobilize anti-His antibodies on CM5 chips (as recommended by the manufacturer). His-tagged recombinant cynomolgus and human TfR-1 in 0.1% BSA in HBS-EP+ buffer (GE Healthcare) was captured at flow rate 10 μl/min. Analyte binding was measured using the single cycle kinetic SPR method on a Biacore T200. Analytes were injected at increasing concentrations (0.98, 3.9, 15.6, 62.5 and 250 nM) in HBS-EP+ at flow rate 30 μl/min. A flow cell without TfR-1 captured served as a reference. The chips were regenerated in 10 mM glycine-HCl, pH 1.5. Sensorgrams were fitted using 1:1 binding model and kinetic constants determined using Biacore T200 Evaluation software (GE Healthcare). Association and dissociation were measured for 360s and 1500s respectively, with flow rate at […].

The target in experiment [7] is T1, recombinant human TfR-1. The experiment is described as above. The method, then:
as §2

In the next experiment the target is T6, HSA (human, UniProt P02768 25-609).
T6 construct: also called human serum albumin (negative control)
T6 sequence (P02768 25-609 limits assumed): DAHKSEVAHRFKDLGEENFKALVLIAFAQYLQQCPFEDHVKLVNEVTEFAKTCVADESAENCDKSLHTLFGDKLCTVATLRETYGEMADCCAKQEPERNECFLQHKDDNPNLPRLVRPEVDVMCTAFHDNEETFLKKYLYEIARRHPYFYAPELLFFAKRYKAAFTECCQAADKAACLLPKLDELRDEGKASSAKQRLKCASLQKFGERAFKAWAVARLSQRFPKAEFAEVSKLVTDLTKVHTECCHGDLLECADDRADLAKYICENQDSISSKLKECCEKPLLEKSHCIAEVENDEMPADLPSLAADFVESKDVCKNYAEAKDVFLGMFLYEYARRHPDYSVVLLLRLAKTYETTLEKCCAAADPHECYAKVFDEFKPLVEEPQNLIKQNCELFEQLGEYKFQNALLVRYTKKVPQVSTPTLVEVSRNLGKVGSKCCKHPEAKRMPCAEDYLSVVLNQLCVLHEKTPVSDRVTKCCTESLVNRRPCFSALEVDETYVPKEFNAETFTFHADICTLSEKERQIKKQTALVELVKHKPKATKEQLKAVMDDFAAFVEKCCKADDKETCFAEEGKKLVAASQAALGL
Put plainly: ELISA, plate-coated HSA as negative control, anti-hFc HRP detection.

Experiment [8] concerns the target T1, recombinant human TfR-1. Briefly: ELISA, plate-coated recombinant hTfR1, anti-hFc HRP detection. The method, then:
(§3) TfR1 ELISA. Nunc MaxiSorp plates were coated with 100 ul of 1 μg/ml of in-house purified recombinant human, cynomolgus TfR1 or HSA and incubated at 4° C. overnight. Plates were incubated with blocking buffer (2.5% non-fat dry milk in PBST) for 1 hr at RT. Serial dilutions of TXP1, TXPID1 or TXP1D4 were mixed with non-fat dry milk in PBST to a final concentration of 2.5% and incubated for 30 min. Blocked VNAR antibody solutions (100 μl) were transferred to the blocked plates and incubated for 1 hr. Plates were washed with PBST and incubated with anti-hFc HRP-conjugated antibody diluted 1:5,000 (Sigma) in blocking buffer for 30 min. Plates were washed and developed with SureBlue TMB substrate. Were indicated the velocity of colorimetric reaction development was measured in the kinetic mode at 370 nm and the maximum peak was used for quantitation (Vmax at 370 nm). Alternatively, the TMB reaction was stopped with 1% HCl and absorbance was measured at 450 nm (OD at 450 nm).

Experiment [9] addresses T3, recombinant cynomolgus TfR-1. Briefly: ELISA, plate-coated recombinant cTfR1, anti-hFc HRP detection. The method, then: as §3

T1 sequence (P02786 89-760 limits assumed): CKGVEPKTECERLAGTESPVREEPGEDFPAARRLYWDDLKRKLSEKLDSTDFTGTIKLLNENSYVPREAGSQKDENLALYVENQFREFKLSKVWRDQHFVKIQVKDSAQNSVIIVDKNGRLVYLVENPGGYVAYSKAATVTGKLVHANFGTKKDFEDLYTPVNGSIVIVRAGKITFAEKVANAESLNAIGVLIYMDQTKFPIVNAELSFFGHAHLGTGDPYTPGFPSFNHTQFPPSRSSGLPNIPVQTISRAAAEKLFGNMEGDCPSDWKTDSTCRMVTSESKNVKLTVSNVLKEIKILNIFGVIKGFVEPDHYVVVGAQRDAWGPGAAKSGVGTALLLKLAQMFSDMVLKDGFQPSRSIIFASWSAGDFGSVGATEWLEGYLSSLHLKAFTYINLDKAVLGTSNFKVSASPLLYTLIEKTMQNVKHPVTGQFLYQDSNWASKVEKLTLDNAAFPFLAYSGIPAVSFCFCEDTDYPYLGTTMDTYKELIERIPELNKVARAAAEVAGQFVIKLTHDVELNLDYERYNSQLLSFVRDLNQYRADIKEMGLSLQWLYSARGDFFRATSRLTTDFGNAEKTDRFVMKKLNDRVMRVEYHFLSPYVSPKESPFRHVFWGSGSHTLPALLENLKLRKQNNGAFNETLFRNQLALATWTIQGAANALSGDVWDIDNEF
T5 sequence (P02786 whole entry): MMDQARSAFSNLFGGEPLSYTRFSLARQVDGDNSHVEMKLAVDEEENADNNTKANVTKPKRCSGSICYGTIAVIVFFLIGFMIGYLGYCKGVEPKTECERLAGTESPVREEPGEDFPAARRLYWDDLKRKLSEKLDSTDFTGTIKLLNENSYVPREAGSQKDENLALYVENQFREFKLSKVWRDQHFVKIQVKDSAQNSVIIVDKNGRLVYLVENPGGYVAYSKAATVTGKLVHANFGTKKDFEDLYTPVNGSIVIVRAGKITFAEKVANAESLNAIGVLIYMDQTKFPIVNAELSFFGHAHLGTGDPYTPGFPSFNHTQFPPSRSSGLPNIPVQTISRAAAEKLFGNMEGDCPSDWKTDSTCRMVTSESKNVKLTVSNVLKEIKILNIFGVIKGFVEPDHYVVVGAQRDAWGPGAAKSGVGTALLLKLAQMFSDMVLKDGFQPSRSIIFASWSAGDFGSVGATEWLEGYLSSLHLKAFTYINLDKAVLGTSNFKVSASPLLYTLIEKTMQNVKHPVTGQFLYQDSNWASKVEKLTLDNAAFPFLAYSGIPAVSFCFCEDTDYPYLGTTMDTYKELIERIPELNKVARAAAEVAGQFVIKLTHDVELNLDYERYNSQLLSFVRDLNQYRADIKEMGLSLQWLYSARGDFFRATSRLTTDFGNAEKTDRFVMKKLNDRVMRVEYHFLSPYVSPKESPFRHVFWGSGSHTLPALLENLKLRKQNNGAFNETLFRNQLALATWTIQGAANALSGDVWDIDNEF

B1: TXP1 (Fc fusion)
chain: ARVDQTPQTITKETGESLTINCVLRDSNCALSSTYWYRKKSGSTNEENISKGGRYVETVNSGSKSFSLKINDLTVEDSGTYRCNVVGTWCMSWRDVYGGGTAVTVNA
notes: Bivalent VNAR-hFc; VNAR at the N-terminus of hFc IgG1; also called VNAR-hFc named TXP1; parental TXP1; not shown: human IgG1 Fc domain (hFc) with attenuated effector function mutations E233P/L234V/L235A/AG236 (deletion of G236)+A327G/
B1: the equilibrium dissociation constant (Kd) came to 5.1 nM in the experiment with recombinant human TfR-1 [1], 1.8 nM in experiment [4], 3.14 nM in [6] and 1.03 nM with recombinant human TfR-1 [7]. The koff in the experiment with recombinant human TfR-1 [1] was determined as 0.00027 s⁻¹; in experiment [4], 9.6e-05 s⁻¹; in experiment [6], 0.000365 s⁻¹; in the experiment with recombinant human TfR-1 [7] it was 0.000134 s⁻¹. For the same molecule, the on-rate (kon) was 54000 M⁻¹ s⁻¹ in the experiment with recombinant human TfR-1 [1], 53000 M⁻¹ s⁻¹ in experiment [4], 116000 M⁻¹ s⁻¹ in [6] and 129000 M⁻¹ s⁻¹ in the experiment with recombinant human TfR-1 [7]. Further, the binding result with recombinant rat TfR-1, with recombinant mouse TfR-1 and with HSA was “no binding” each time. Further, the EC50 was determined as 1.6 nM in experiment [2]; 1.5 nM with recombinant human TfR-1 [3]; 2.2 nM in experiment [5]; 1.9 nM in the experiment with recombinant human TfR-1 [8]; 1.4 nM in experiment [9].
